Consider 2 variants from IntAct's records for PubMed 20676127.

The chains are these.
B1: Inhibitor of growth protein 2 (Homo sapiens), Q9H160 (parent)
chain: MLGQQQQQLYSSAALLTGERSRLLTCYVQDYLECVESLPHDMQRNVSVLRELDNKYQETLKEIDDVYEKYKKEDDLNQKKRLQQLLQRALINSQELGDEKIQIVTQMLELVENRARQMELHSQCFQDPAESERASDKAKMDSSQPERSSRRPRRQRTSESRDLCHMANGIEDCDDQPPKEKKSKSAKKKKRSKAKQEREASPVEFAIDPNEPTYCLCNQVSYGEMIGCDNEQCPIEWFHFSCVSLTYKPKGKWYCPKCRGDNEKTMDKSTEKTKKDRRSR
partner: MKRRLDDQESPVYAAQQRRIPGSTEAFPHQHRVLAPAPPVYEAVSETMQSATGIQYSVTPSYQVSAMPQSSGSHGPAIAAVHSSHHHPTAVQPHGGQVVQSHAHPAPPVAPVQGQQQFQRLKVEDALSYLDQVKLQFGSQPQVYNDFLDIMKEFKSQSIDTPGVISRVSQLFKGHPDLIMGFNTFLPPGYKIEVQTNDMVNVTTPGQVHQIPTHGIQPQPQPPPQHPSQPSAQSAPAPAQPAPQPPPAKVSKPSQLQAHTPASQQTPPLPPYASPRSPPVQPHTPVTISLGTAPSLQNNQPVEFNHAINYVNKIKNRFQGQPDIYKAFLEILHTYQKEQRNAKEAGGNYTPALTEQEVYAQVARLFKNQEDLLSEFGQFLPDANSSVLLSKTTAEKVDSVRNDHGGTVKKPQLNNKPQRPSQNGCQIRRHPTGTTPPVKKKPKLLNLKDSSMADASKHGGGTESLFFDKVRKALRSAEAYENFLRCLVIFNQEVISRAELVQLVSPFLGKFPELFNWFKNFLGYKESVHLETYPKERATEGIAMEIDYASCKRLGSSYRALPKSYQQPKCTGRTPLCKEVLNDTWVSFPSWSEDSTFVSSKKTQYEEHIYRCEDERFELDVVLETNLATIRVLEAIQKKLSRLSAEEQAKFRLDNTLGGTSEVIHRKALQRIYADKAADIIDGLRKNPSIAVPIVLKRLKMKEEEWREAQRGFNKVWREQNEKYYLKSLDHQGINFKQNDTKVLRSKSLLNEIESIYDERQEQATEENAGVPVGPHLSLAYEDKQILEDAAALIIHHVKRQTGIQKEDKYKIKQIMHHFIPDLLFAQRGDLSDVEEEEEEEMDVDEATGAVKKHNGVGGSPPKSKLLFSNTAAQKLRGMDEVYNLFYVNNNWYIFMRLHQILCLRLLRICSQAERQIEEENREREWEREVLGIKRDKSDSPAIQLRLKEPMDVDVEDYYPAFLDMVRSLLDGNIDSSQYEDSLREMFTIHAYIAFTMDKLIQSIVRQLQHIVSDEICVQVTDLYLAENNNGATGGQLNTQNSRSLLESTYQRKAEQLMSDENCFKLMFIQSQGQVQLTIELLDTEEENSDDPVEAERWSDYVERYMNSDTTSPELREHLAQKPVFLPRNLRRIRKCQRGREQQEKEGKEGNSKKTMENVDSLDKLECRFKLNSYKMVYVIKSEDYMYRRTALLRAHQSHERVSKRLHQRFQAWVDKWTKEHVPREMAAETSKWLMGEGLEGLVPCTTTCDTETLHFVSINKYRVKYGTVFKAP

Variants of B1 are the subject of the assay. Conditions: with sin3a_human SIN3A.
With K195R, the “effect of a mutation on the interaction” value is reported as “decreasing interaction”.
With E197A the entry was “decreasing interaction”.
